For the data set, the system named is Escherichia coli TOP10. Put plainly: shrunken log2 fold change of peptide-encoding DNA abundance (4.5 h post-induction vs induction); higher = less antimicrobial activity (less host growth inhibition). The note with it: time post-induction: 4.5 h; library: site-saturation at positions 5, 18, 19, 20.
Take RRIRFRPPRLPRPRPRPRGTPRP: the “shrunken log2 fold change” value amounted to 0.294.
In the case of RRIRPRPPRLPRPRPRPQMMPRP, the “shrunken log2 fold change” value was -0.41.
Consider RRIRCRPPRLPRPRPRPSGCPRP, for which the “shrunken log2 fold change” value was -0.221.
Take RRIRSRPPRLPRPRPRPMNGPRP: the “shrunken log2 fold change” value is -0.205.
With RRIRARPPRLPRPRPRPDAVPRP, the “shrunken log2 fold change” value worked out at 0.683.
With RRIRYRPPRLPRPRPRPSQYPRP, the “shrunken log2 fold change” value is -0.209.
With RRIRKRPPRLPRPRPRPDWGPRP the figure was 2.83.
In the case of RRIRNRPPRLPRPRPRPAVHPRP, the “shrunken log2 fold change” value was -0.0211.
As for RRIRSRPPRLPRPRPRPFRRPRP, the figure is -0.261; as for RRIRIRPPRLPRPRPRPEPDPRP, -0.00501; as for RRIRARPPRLPRPRPRPYFTPRP, -0.71.
Take RRIRFRPPRLPRPRPRPQLNPRP: the “shrunken log2 fold change” value was -0.53.
Regarding RRIRERPPRLPRPRPRPIPPPRP, the “shrunken log2 fold change” value was 0.0452.
With RRIRTRPPRLPRPRPRPADWPRP, the “shrunken log2 fold change” value turned out to be 0.446.
For the sequence RRIRARPPRLPRPRPRPWISPRP, the “shrunken log2 fold change” value was -0.333.
For RRIRNRPPRLPRPRPRPEFPPRP, the “shrunken log2 fold change” value was determined as 0.0125.
RRIRGRPPRLPRPRPRPNPLPRP: the “shrunken log2 fold change” value is 0.217.
With RRIRSRPPRLPRPRPRPAYQPRP the figure was -0.151; with RRIRFRPPRLPRPRPRPIMWPRP, 0.0691.
As for RRIRNRPPRLPRPRPRPSARPRP, the figure is 0.256; as for RRIRQRPPRLPRPRPRPSDIPRP, -0.0397; as for RRIRYRPPRLPRPRPRPSMKPRP, -0.806.
Turning to RRIRDRPPRLPRPRPRPLYTPRP, the “shrunken log2 fold change” value was -0.181.
As for RRIRVRPPRLPRPRPRPVYDPRP, the figure is -0.182.
With RRIRMRPPRLPRPRPRPAYAPRP the figure was 0.0769.
With RRIRFRPPRLPRPRPRPYDSPRP the figure was -0.924.
RRIRSRPPRLPRPRPRPVVSPRP: the “shrunken log2 fold change” value is 0.151.
RRIRFRPPRLPRPRPRPIIKPRP: the “shrunken log2 fold change” value is -0.696.
Turning to RRIRARPPRLPRPRPRPMINPRP, the “shrunken log2 fold change” value is -0.0176.
Regarding RRIRYRPPRLPRPRPRPIHQPRP, the “shrunken log2 fold change” value was -0.0218.
For RRIRMRPPRLPRPRPRPCMRPRP, the “shrunken log2 fold change” value came out at 0.889.
As to RRIRWRPPRLPRPRPRPESEPRP, the “shrunken log2 fold change” value was 0.916.
For RRIRVRPPRLPRPRPRPGYAPRP, the “shrunken log2 fold change” value was found to be 0.0532.
For the sequence RRIRPRPPRLPRPRPRPWEGPRP, the “shrunken log2 fold change” value is 0.0632.
As for RRIRNRPPRLPRPRPRPFVKPRP, the figure is -0.669.
RRIRCRPPRLPRPRPRPQMDPRP: the “shrunken log2 fold change” value is -0.248.
Take RRIRWRPPRLPRPRPRPRCRPRP: the “shrunken log2 fold change” value came to 0.371.
On to RRIRVRPPRLPRPRPRPPGAPRP, for which the “shrunken log2 fold change” value was 0.595.
With RRIRKRPPRLPRPRPRPDRCPRP the figure was 0.00281.
As for RRIRTRPPRLPRPRPRPVWFPRP, the “shrunken log2 fold change” value was 0.0412.
With RRIRFRPPRLPRPRPRPCKCPRP, the “shrunken log2 fold change” value is -0.317.
RRIRNRPPRLPRPRPRPCLPPRP: the “shrunken log2 fold change” value is -0.217.
For the sequence RRIRWRPPRLPRPRPRPHNQPRP, the “shrunken log2 fold change” value is -0.445.
For RRIRCRPPRLPRPRPRPLVIPRP, the “shrunken log2 fold change” value is -0.401.
With RRIRKRPPRLPRPRPRPLTPPRP the figure was 0.658.
On to RRIRKRPPRLPRPRPRPWTNPRP, for which the “shrunken log2 fold change” value is -0.0144.
For the sequence RRIRRRPPRLPRPRPRPDYEPRP, the “shrunken log2 fold change” value was -0.115.
With RRIRSRPPRLPRPRPRPFIGPRP, the “shrunken log2 fold change” value was -1.15.
Take RRIRYRPPRLPRPRPRPMHRPRP: the “shrunken log2 fold change” value was -0.0541.
RRIRRRPPRLPRPRPRPFKMPRP: the “shrunken log2 fold change” value was -0.124.
Take RRIRMRPPRLPRPRPRPELCPRP: the “shrunken log2 fold change” value stood at 3.34.
As to RRIRTRPPRLPRPRPRPFEIPRP, the “shrunken log2 fold change” value was 0.0711.
With RRIRPRPPRLPRPRPRPYWTPRP the figure was -0.68; with RRIRNRPPRLPRPRPRPYKSPRP, -0.00822; with RRIRARPPRLPRPRPRPNFSPRP, -0.0677.
With RRIRFRPPRLPRPRPRPRLVPRP the figure was 0.207.
RRIRLRPPRLPRPRPRPFASPRP: the “shrunken log2 fold change” value was -0.062.
On to RRIRARPPRLPRPRPRPGEYPRP, for which the “shrunken log2 fold change” value was 0.0829.
As for RRIRMRPPRLPRPRPRPKTNPRP, the figure is 0.864.
On to RRIRHRPPRLPRPRPRPPIHPRP, for which the “shrunken log2 fold change” value is -0.639.
For RRIRSRPPRLPRPRPRPYRDPRP, the “shrunken log2 fold change” value was -0.128.
RRIRYRPPRLPRPRPRPPDKPRP: the “shrunken log2 fold change” value amounted to 0.194.
Regarding RRIRYRPPRLPRPRPRPPYLPRP, the “shrunken log2 fold change” value is -0.985.
As for RRIRRRPPRLPRPRPRPWHQPRP, the “shrunken log2 fold change” value is -0.111.
Turning to RRIRLRPPRLPRPRPRPEEEPRP, the “shrunken log2 fold change” value was -0.00112.
In the case of RRIRPRPPRLPRPRPRPIHHPRP, the “shrunken log2 fold change” value was -0.454.
As to RRIRARPPRLPRPRPRPHCTPRP, the “shrunken log2 fold change” value stood at 1.18.
As to RRIRWRPPRLPRPRPRPTTPPRP, the “shrunken log2 fold change” value is 0.642.
Take RRIRYRPPRLPRPRPRPVVYPRP: the “shrunken log2 fold change” value stood at 0.0874.
Turning to RRIRYRPPRLPRPRPRPDWVPRP, the “shrunken log2 fold change” value is -0.252.
Consider RRIRRRPPRLPRPRPRPKRQPRP, for which the “shrunken log2 fold change” value was 0.584.
With RRIRHRPPRLPRPRPRPEDHPRP, the “shrunken log2 fold change” value was 0.0753.
With RRIRCRPPRLPRPRPRPLFRPRP, the “shrunken log2 fold change” value was -0.283.
As to RRIRCRPPRLPRPRPRPNEWPRP, the “shrunken log2 fold change” value was determined as 0.0357.
For the sequence RRIRVRPPRLPRPRPRPQACPRP, the “shrunken log2 fold change” value worked out at 1.56.
For RRIRNRPPRLPRPRPRPGFRPRP, the “shrunken log2 fold change” value was 0.114.
Take RRIRGRPPRLPRPRPRPTEMPRP: the “shrunken log2 fold change” value is 0.814.
As to RRIRCRPPRLPRPRPRPLHDPRP, the “shrunken log2 fold change” value is 0.0221.
As for RRIRHRPPRLPRPRPRPEKVPRP, the “shrunken log2 fold change” value is -0.017.
RRIRYRPPRLPRPRPRPQEYPRP: the “shrunken log2 fold change” value was -0.00804.
Consider RRIRKRPPRLPRPRPRPPHLPRP, for which the “shrunken log2 fold change” value stood at 0.332.
As for RRIRYRPPRLPRPRPRPKDAPRP, the figure is -0.0259; as for RRIRSRPPRLPRPRPRPQHCPRP, -0.0942.
As to RRIRLRPPRLPRPRPRPWIRPRP, the “shrunken log2 fold change” value was -0.0231.
RRIRYRPPRLPRPRPRPKLYPRP: the “shrunken log2 fold change” value is -0.65.
Regarding RRIRKRPPRLPRPRPRPCRGPRP, the “shrunken log2 fold change” value is -0.115.
RRIRMRPPRLPRPRPRPFDYPRP: the “shrunken log2 fold change” value was -0.16.
With RRIRPRPPRLPRPRPRPTHLPRP, the “shrunken log2 fold change” value worked out at 0.23.
RRIRQRPPRLPRPRPRPVQVPRP: the “shrunken log2 fold change” value is -0.0564.
RRIRERPPRLPRPRPRPWRNPRP: the “shrunken log2 fold change” value came to 0.0891.
Consider RRIRGRPPRLPRPRPRPSNTPRP, for which the “shrunken log2 fold change” value was -0.023.
Regarding RRIRRRPPRLPRPRPRPAWKPRP, the “shrunken log2 fold change” value is 0.2.
RRIRARPPRLPRPRPRPLYRPRP: the “shrunken log2 fold change” value was -0.28.
On to RRIRIRPPRLPRPRPRPCHCPRP, for which the “shrunken log2 fold change” value stood at 0.0274.
Consider RRIRCRPPRLPRPRPRPEHNPRP, for which the “shrunken log2 fold change” value is -0.377.
Turning to RRIRHRPPRLPRPRPRPPMPPRP, the “shrunken log2 fold change” value is 0.108.
As to RRIRERPPRLPRPRPRPLNVPRP, the “shrunken log2 fold change” value is -0.0706.
In the case of RRIRHRPPRLPRPRPRPNQRPRP, the “shrunken log2 fold change” value amounted to 0.333.
In the case of RRIRCRPPRLPRPRPRPWQSPRP, the “shrunken log2 fold change” value is -0.127.
RRIRFRPPRLPRPRPRPRNQPRP: the “shrunken log2 fold change” value is -0.114.
As for RRIRDRPPRLPRPRPRPQASPRP, the “shrunken log2 fold change” value is -0.0448.
Regarding RRIRHRPPRLPRPRPRPTKHPRP, the “shrunken log2 fold change” value is -0.142.
With RRIRLRPPRLPRPRPRPFANPRP the figure was 0.0335; with RRIRTRPPRLPRPRPRPFRQPRP, 0.0156.
Turning to RRIRQRPPRLPRPRPRPYPLPRP, the “shrunken log2 fold change” value is -0.73.
In the case of RRIRMRPPRLPRPRPRPMRQPRP, the “shrunken log2 fold change” value is -0.0415.
As for RRIRRRPPRLPRPRPRPSNGPRP, the “shrunken log2 fold change” value is -0.296.
With RRIRPRPPRLPRPRPRPDHWPRP, the “shrunken log2 fold change” value turned out to be 0.0752.
Take RRIRFRPPRLPRPRPRPPSLPRP: the “shrunken log2 fold change” value is -0.112.
With RRIRGRPPRLPRPRPRPWQSPRP, the “shrunken log2 fold change” value worked out at 0.161.
Take RRIRIRPPRLPRPRPRPPFKPRP: the “shrunken log2 fold change” value came out at 0.228.
With RRIRARPPRLPRPRPRPNHYPRP the figure was -0.456; with RRIRVRPPRLPRPRPRPCPAPRP, -0.121; with RRIRFRPPRLPRPRPRPGGQPRP, 0.0786.
On to RRIRPRPPRLPRPRPRPIKIPRP, for which the “shrunken log2 fold change” value was -0.319.
As for RRIRPRPPRLPRPRPRPGLPPRP, the figure is 0.0398; as for RRIRVRPPRLPRPRPRPYNYPRP, -0.845.
With RRIRQRPPRLPRPRPRPVGYPRP, the “shrunken log2 fold change” value is 0.101.
Regarding RRIRARPPRLPRPRPRPSYWPRP, the “shrunken log2 fold change” value was -0.184.
Turning to RRIRVRPPRLPRPRPRPNFNPRP, the “shrunken log2 fold change” value was -0.143.
In the case of RRIRNRPPRLPRPRPRPNCTPRP, the “shrunken log2 fold change” value was -0.191.
With RRIRLRPPRLPRPRPRPKFFPRP, the “shrunken log2 fold change” value turned out to be 0.002.
Regarding RRIRPRPPRLPRPRPRPFDYPRP, the “shrunken log2 fold change” value was -0.391.
Regarding RRIRPRPPRLPRPRPRPHWWPRP, the “shrunken log2 fold change” value came out at 0.507.
With RRIRKRPPRLPRPRPRPSFHPRP, the “shrunken log2 fold change” value was -0.219.
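Also: peptides expressed intracellularly from a pBAD plasmid library in pooled LB shake-flask culture, induced with 0.3% L-arabinose, DNA abundance read by NGS, three biological replicates, DESeq2 with apeglm shrinkage.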
